The source of these data is PMC3950709 (Nucleic Acids Research, 2013).

Substitutions are numbered along the chain they refer to. Numbers in names are those of the source. Where two headings read alike, the source gives them in different places.

Series [1] deals with native rabbit IFIT1B (native rIFIT1B) (rabbit (endogenous in rabbit reticulocyte lysate)). Description: native gel or EMSA.
In series [2] the target is rabbit IFIT1B (rIFIT1B), recombinant (rabbit). Nature of the series: native gel or EMSA.
Series [3] concerns the molecule itself. Nature of the series: native gel or EMSA.
Series [4] deals with the molecule itself. Description: native gel or EMSA. The source holds these as a separate data set.
The next series deals with T1, hIFIT3 (Homo sapiens, UniProt O14879 1-490).
T1 sequence: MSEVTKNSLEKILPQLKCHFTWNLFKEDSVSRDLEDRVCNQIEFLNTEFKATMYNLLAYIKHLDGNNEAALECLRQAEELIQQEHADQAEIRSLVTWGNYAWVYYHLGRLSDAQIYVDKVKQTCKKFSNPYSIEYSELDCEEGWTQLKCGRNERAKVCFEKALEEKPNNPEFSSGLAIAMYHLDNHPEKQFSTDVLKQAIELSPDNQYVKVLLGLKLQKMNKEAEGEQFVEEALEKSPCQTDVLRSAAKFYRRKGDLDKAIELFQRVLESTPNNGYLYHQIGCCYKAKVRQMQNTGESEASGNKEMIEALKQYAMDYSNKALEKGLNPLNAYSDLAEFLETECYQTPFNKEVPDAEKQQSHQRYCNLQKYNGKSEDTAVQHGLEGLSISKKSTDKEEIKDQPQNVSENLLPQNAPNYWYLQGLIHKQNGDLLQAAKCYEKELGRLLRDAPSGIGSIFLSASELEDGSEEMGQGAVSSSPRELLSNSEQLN
Description: EMSA.

In another series the target is T2, hIFIT2 (Homo sapiens, UniProt P09913 1-472).
T2 sequence: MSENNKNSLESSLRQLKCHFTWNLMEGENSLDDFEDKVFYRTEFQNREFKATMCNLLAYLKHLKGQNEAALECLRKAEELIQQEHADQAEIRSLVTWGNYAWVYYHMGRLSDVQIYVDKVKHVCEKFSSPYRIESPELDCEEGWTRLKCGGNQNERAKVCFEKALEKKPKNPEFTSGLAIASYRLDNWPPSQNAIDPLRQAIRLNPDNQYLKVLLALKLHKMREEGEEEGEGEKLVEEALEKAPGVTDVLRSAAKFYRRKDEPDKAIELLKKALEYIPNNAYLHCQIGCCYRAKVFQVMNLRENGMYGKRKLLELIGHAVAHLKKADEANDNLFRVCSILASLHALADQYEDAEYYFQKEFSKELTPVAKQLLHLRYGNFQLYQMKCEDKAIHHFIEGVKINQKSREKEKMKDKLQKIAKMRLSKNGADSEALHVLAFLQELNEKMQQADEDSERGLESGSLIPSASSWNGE
Nature of the series: EMSA.

In the next series the target is T3, hIFIT5 (Homo sapiens, UniProt Q13325 1-482).
T3 sequence: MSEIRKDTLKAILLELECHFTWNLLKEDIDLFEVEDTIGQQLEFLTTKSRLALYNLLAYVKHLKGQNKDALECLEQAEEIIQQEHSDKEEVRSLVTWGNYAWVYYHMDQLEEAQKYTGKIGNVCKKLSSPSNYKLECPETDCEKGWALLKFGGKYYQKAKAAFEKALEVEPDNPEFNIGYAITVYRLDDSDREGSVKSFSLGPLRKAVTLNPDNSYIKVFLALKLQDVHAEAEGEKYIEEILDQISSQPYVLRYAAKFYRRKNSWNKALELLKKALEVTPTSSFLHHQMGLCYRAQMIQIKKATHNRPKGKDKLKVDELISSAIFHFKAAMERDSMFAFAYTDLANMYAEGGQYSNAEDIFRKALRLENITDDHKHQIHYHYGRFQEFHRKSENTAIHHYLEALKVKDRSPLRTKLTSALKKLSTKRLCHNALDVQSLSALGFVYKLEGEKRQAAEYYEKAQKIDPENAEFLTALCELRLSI
Description: EMSA.

Series [5] concerns the target T4, hIFIT1 (Homo sapiens, UniProt P09914 1-478).
T4 sequence: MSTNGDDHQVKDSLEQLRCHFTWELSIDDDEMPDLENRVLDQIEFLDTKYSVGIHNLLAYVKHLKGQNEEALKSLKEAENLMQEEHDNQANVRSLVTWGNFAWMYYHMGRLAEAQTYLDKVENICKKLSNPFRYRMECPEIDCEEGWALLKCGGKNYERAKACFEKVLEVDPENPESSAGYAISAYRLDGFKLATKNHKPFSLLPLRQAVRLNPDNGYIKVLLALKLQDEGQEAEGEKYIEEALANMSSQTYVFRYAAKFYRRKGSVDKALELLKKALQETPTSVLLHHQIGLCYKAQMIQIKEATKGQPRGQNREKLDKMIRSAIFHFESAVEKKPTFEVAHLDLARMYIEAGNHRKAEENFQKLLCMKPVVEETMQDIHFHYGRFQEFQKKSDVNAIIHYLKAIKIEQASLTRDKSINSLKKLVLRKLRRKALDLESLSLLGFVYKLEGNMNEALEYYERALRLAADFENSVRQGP
Description: EMSA.

Series [6] addresses T4, hIFIT1. Nature of the series: EMSA. The source holds these as a separate data set.

As for “native rabbit IFIT1B (native rIFIT1B) (natural protein)”, the stoichiometry N in [1] was 2. As for “rabbit IFIT1B (rIFIT1B), recombinant (natural protein)”, the stoichiometry N in series [2] came to 2.

B1: human IFIT3 (hIFIT3), recombinant (natural protein, UniProt O14879 1-490, looked up)
chain: T1 sequence
Take B1: the binding result in “native gel or EMSA [3]” is on record as “binds”.

B2: human IFIT1 (hIFIT1), recombinant wild type (natural protein, UniProt P09914 1-478, looked up)
chain: T4 sequence
Turning to B2, the binding result in the series “native gel or EMSA [4]” is “binds”.

B3: hIFIT1 W147L (natural protein, human, UniProt P09914 1-478, looked up)
chain: T4 sequence with W147L
As to B3, in the series “native gel or EMSA [3]”, the binding result was “binds”.

B4: hIFIT1 F45A/Y50A (natural protein, human, UniProt P09914 1-478, looked up)
chain: T4 sequence with F45A, Y50A
In the case of B4, in the series “native gel or EMSA [3]”, the binding result is “binds”.

B5: hIFIT1 Y218A (natural protein, human, UniProt P09914 1-478, looked up)
chain: T4 sequence with Y218A
Consider B5, for which, in the series “native gel or EMSA [3]”, the binding result is “binds”.

B6: hIFIT1 Y50A (natural protein, human, UniProt P09914 1-478, looked up)
chain: T4 sequence with Y50A
Regarding B6, the binding result in the series “native gel or EMSA [3]” was “binds”.

B7: hIFIT1 F45A (natural protein, human, UniProt P09914 1-478, looked up)
chain: T4 sequence with F45A
As to B7, the binding result in “native gel or EMSA [3]” is recorded as “binds”.

B8: cap0 62-nt β-globin(G) RNA (ssRNA)
RNA: GACACUUGCUUUUGACACAACUGUGUUUACUUGCAAUCCCCCAAAACAGACAGAAUGGUGCA
modifications: m7Gppp cap0
As for B8, the binding result with hIFIT3 is recorded as “no binding”; with hIFIT2, “no binding”; with hIFIT5, “no binding”; in the series with hIFIT1 [5] it was “binds”.

B9: cap1 62-nt β-globin(G) RNA (ssRNA)
RNA: B8 RNA
modifications: m7GpppGm cap1
As to B9, the binding result with hIFIT3, with hIFIT2, in the series with hIFIT5 and with hIFIT1 [6] was “no binding” throughout.

B10: human IFIT2 (hIFIT2), recombinant (natural protein, UniProt P09913 1-472, looked up)
chain: T2 sequence
Regarding B10, the “stoichiometry N” value in “native gel or EMSA [3]” worked out at 2.
